Data: patent US7063946B2, “Methods, reagents, kits and apparatus for protein function analysis” (Meso Scale Technologies, LLC., priority 2001, dated 2006)
Values joined by “and” are separate entries in the source; they are usually repeats but may differ in a detail not shown here. Equal entries are not always repeated.

Experiments:
[1] = molecular target: T1, Myc peptide (SEQ ID NO: 4) (Homo sapiens, UniProt P01106); assay: 96-well screen for phosphopeptide binding proteins, 7-spot IPR plates; conditions: two steps of normalization; top 9 clones
T1 construct: phosphothreonine (T58) and phosphoserine (S62) (chemical modification); purchased New England Peptide, Fitchburg Mass; host or cells: chemical synthesis
Method: (§1) A screen was conducted using 7-spot IPR plates. The 7 spot NPT IPR plates are described in more detail in copending Provisional Application No. 60/301,932 (entitled “Assay Plates, Reader Systems and Methods for Luminescence Test Measurements”, filed on Jun. 29, 2001, hereby incorporated by reference) and particularly in the description of Plate Type D in Example 6.1 (NPT IPR plate) and U.S. application Ser. Nos. 10/185,274 and 10/185,363, filed Jun. 28, 2002, each hereby incorporated by reference. These plates consist of a 96 wells with 7 zones (spots) for the immobilization of proteins or other reagents. Each spot was coated with BSA conjugated to either a single phosphopeptide or multiple phosphopeptides.
(§2) The plates were prepared essentially as described in example 12. The seven spots supported, respectively, the following BSA conjugates IkB, pY992, pY1068, pY1148, Myc, “A”, and “6-P”. “A” refers to a conjugate of BSA with multiple peptides: IkB, pY1148, Myc which were then coupled to BSA. “6-P” refers to a conjugate of BSA with the following multiple peptides: IkB, pY1148, pY992, pY1068, Smad3C.
(§3) For the assay, 4 ul from TnT reaction product described above were added to the coated plate containing 50 μl of binding buffer supplemented with 50 ng/well Ru-Streptavidin. The binding reaction was allowed to proceed at room temperature for 1 hour with constant shaking. […] The ECL signals were measured using an imaging plate reader (IPR). The raw data from the IPR reader was then normalized using two steps of normalization. The first round was based on the 50 lowest values for a given specific spot. These 50 lowest values were averaged and divided into each signal for that spot to generate a signal value which could be compared readily between the peptide-conjugate spots. This was then followed by a second round of normalization using the lowest normalized value for a spot within a well to divide the signals from the other spots. This method provides a means to reduce the signals from proteins which bound non specifically to all the spots within a well. […]

[2] = molecular target: T2, IkB peptide (SEQ ID NO: 1) (Homo sapiens, UniProt P25963); assay: as above; conditions: two steps of normalization, top 9 clones
T2 construct: two phosphoserines in the DSGLDS motif (chemical modification); purchased New England Peptide, Fitchburg Mass; host or cells: chemical synthesis
Method: as §1, §2, §3

[3] = molecular target: T3, EGFR-pY992 (SEQ ID NO: 5) (Homo sapiens, UniProt P00533); assay: Single-well 4-spot assay for multiple peptide-protein interactions; type: binding; conditions: 4-spot plate
T3 construct: phosphotyrosine at Tyr992 (chemical modification); purchased New England Peptide, Fitchburg Mass; host or cells: chemical synthesis
Text: Four phosphopeptides and their cognate binding proteins (Table 14) were selected for an integrated assay of multiple peptide-protein interaction in 4-spot Multi-Array plates. The IkBa-24pp peptide and its binding protein, βTRCP, are described in Example 10. […] These phosphotyrosine containing peptides are recognized by different adaptor or effecter proteins of the receptor tyrosine kinase signaling pathway.
These four peptides were coupled to BSA carrier protein through cystine residue. After purification on PD-10 gel filtration columns, the peptide-BSA conjugates were then deposited on the assay domains of a 4-spot multi-array IPR plate (i.e., in one of the four exposed regions of working electrode defined by the dielectric layer) with an automated micro-dispensing system (Bio-Dot Dispenser, Bio-Dot, Irvine Calif.). […] These plates are dried then used or stored under desiccated conditions. A few hours prior to usage the plates were rehydrated and blocked with 3% BSA in PBS. […] The in vitro translated and biotin-labeled proteins were then assayed in the 4-spot multi-array IPR plates under conditions described in Example 10.

[4] = test system: FRK; assay: Kinase inhibitor profiling, pEY phosphorylation; type: biochemical

T2 sequence (P25963 with tags, fused parts or gaps limits assumed): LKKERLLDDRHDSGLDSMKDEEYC
T1 sequence (P01106 with tags, fused parts or gaps limits assumed): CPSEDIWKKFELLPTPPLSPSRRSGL

Molecule: 3491843: IMAGE clone protein: βTRCP1 [compound 3491843]
- normalized ECL signal, Myc spot [1]: 4 and 8
- normalized ECL signal, IkBa spot [2]: 12
- normalized ECL signal, IkBa spot ([2]; βTRCP positive control): 23

Molecule: 3872466: IMAGE clone protein: mCBP [compound 3872466]
- ECL signal, spot 4 EGFR-pY992 [3]: 498

Molecule: COc1c(C=O)c(O)cc2c1C(=O)c1ccccc1C2=O [Damnacanthal]
- Inhibition specificity towards pEY phosphorylation at 10X IC50, FRK [4]: H (high inhibition (“H”=less than 25% of the activity remaining))
